Key:
[1] = molecular target: T1, exoplasmic domain of human CD40 (GST-CD40) (Homo sapiens, UniProt P25942); test: GST-CD40 pull-down of endogenous heat shock proteins from Hela cell lysate; type: binding; conditions: 80 or 400 pmol GST-CD40, immunoblot
T1 construct: The cDNA for the exoplasmic domain of CD40 (amino acids 20-212); made in house; host or cells: E. coli, pGEX-2T
Description: Binding assays with GST-CD40. For binding of endogenous Hsp70 and Hsc70 from Hela cell lysate, Hela cells were lysed as described above and centrifuged at 100,000 g at 4° C. for 1 h. 20 μl bed volume of Glutathione Sepharose 4 Fast Flow (Amersham Pharmacia) per sample were preincubated with 80 pmol or 400 pmol of GST or GST-CD40 fusion protein in 50 μl binding buffer. Unbound protein was removed by washing three times with PBS. The beads were treated with 1% BSA/PBS to avoid non-specific binding, and than incubated with 150 μl of Hela cell lysate in the presence of 2 mM DTT for 20 min at 16° C. […] 10 μl of the eluates was subjected to SDS-PAGE and analyzed by immunoblotting using an anti-Hsc/Hsp70 antibody and an anti-Hsp90: antibody (SPA822 and SPA835, Stressgen). […]
(§1) Details for FIG. 3. […] Thereafter samples were affinity purified on glutathione-Sepharose as outlined in Experimental Procedures, subjected to SDS-PAGE and analyzed by immunoblotting with antibodies directed against Hsc70 and Hsp70 (upper lanes), and against Hsp90 (lower lanes). […] After affinity purification samples were analyzed by immunoblotting as described in A, using antibodies directed against the His6-tag. […] Protein bound to Hsp70 was analyzed by affinity purification on Ni-NTA-agarose and immunoblotting with antibodies directed against CD40.

[2] = molecular target: T2, endogenous CD40 (Mus musculus, UniProt P27512); test: Binding assay with His6-tagged Hsp70 and Ni-NTA-agarose, ANA1 cell lysate; set-up: species or system murine; conditions: His-tagged Hsp70, with or without ADP
T2 construct: endogenous CD40 in extracts of LPS-stimulated ANA1-cells; endogenous in cells; host or cells: ANA1 murine macrophage cell line, LPS-stimulated
T2 sequence (P27512 20-289): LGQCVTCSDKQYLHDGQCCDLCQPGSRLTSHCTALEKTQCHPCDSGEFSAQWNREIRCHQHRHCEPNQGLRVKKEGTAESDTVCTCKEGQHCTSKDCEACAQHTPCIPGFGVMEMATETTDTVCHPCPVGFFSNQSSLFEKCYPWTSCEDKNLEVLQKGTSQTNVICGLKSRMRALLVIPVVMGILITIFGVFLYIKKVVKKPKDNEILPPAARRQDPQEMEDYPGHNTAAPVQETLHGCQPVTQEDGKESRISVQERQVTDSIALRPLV
Description: Binding assay with His6-tagged Hsp70 and Ni-NTA-agarose. ANA1-cells were stimulated with LPS as described above and lysed in lysis buffer (150 mM Tris/HCl, ph 7,5, 1% CHAPS) for 45 min at 4° C. Cell lysate was centrifuged at 100,000 g for 15 min at 4° C. […] of the supernatant was incubated with 10 μg of His6-tagged Hsp70, preincubated with ADP and a 30-fold excess of peptide C, or mock treated, as described above for biotinylated proteins, for 30 min at 4° C. Thereafter the samples were added to 20 μl of 1% BSA-treated Ni-NTA-agarose (Quiagen) and incubated for 30 min at 4° C. Unbound protein was removed by washing the beads three times with 1 ml lysis buffer, and immobilized proteins eluted with 10 μl SDS-PAGE-sample buffer by incubation for 5 min at 95° C. Eluates were analyzed by immunoblotting using an anti-CD40 antibody (CSA-180, Stressgen).
as §1

T1 sequence (P25942 20-212): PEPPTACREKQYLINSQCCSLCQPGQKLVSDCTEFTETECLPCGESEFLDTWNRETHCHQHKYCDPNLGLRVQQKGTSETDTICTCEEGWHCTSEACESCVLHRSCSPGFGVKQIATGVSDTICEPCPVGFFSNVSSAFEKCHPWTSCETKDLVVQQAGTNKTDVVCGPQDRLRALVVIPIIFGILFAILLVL

For “Hsp70: Recombinant human heat shock protein 70, expressed and purified as His-tagged protein”, the “binding to GST-CD40 from Hela-cell lysates” value [1] was “bound to GST-CD40 in a concentration dependent manner” and the “interaction with endogenous CD40 in extracts of LPS-stimulated ANA1-cells” value [2] was “interacted, in an ADP-dependent manner”.
